Laboratory results published in patent EP4763862A1 (Beijing Tide Pharmaceutical Co., Ltd., dated 2026).

Legend:
[1] = target: T1, mouse B7-H3 on CHO-mouse B7-H3 cells (mouse, UniProt Q8VE98 29-316); experiment: flow cytometry on CHO-mouse B7-H3 cells, antibody 10 µg/ml
T1 construct: whole, on cells; also called CHO-S-mouse-B7-H3; murine B7-H3
T1 sequence (looked up): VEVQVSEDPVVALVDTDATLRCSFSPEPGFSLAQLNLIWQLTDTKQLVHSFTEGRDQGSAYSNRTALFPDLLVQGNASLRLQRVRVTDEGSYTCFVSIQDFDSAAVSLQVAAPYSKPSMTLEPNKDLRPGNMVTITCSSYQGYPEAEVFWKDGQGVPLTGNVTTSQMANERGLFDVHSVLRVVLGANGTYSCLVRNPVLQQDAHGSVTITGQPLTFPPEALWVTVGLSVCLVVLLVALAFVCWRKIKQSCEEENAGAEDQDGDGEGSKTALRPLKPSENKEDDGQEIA

[2] = target: T2, B7-H3 on NCI-H446 cells (UniProt Q5ZPR3 29-534); experiment: flow cytometry on NCI-H446 cells, goat anti-human Fc secondary
T2 construct: whole, on cells
T2 sequence (looked up): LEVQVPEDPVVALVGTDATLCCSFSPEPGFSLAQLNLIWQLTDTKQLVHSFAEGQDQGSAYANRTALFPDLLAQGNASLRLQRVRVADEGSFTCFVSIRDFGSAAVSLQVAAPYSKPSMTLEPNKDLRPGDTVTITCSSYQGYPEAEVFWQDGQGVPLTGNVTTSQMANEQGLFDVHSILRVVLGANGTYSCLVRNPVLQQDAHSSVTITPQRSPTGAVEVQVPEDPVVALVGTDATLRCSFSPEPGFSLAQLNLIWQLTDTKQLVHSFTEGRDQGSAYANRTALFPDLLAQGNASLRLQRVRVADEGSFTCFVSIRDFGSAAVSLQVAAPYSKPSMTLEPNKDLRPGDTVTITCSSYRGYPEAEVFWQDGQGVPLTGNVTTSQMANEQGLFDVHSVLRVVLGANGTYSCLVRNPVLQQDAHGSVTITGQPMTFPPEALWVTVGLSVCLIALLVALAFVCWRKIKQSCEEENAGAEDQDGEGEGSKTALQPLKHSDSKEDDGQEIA

[3] = target: T3, hB7-H1 (PD-L1) (human, UniProt Q9NZQ7 19-238); experiment: ELISA, His-tagged antigen coated at 1 µg/mL, HRP-Protein A detection
T3 construct: Species read from the printed prefix h; not shown: His tag

[4] = target: T4, B7-H2 (UniProt O75144 19-258, limits assumed); experiment: as above
T4 construct: not shown: His tag
T4 sequence (looked up): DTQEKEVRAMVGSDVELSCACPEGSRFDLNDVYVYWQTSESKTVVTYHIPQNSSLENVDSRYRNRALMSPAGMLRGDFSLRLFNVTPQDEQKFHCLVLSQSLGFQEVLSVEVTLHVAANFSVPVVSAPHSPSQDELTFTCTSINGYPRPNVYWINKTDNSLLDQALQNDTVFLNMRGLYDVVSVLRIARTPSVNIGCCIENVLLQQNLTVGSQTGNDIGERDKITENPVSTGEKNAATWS

[5] = target: T5, B7-H4 (UniProt Q7Z7D3 29-258, limits assumed); experiment: as above
T5 construct: not shown: His tag
T5 sequence (looked up): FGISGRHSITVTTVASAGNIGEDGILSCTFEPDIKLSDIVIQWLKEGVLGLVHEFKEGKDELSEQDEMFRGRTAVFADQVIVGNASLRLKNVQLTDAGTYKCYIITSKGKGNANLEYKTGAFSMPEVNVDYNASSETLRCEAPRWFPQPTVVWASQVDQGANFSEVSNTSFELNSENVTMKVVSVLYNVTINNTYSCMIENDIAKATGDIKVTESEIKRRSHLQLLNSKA

[6] = target: T6, B7-H5 (UniProt Q9H7M9 33-194); experiment: as above
T6 construct: The name B7-H5 is ambiguous in the literature; not shown: His tag
T6 sequence (looked up): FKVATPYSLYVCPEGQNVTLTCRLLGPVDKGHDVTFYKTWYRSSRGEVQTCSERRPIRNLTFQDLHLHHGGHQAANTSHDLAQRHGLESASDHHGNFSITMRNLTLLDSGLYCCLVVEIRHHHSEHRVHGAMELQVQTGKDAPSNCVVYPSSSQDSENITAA

[7] = target: T7, B7-H6 (UniProt Q68D85 25-262); experiment: as above
T7 construct: not shown: His tag
T7 sequence (looked up): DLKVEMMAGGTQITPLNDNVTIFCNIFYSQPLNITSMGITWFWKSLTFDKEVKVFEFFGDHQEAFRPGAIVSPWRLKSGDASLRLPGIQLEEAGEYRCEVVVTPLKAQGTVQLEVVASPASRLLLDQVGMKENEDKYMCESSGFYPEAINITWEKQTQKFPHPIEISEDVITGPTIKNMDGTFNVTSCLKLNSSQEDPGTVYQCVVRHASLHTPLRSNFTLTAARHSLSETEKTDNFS

[8] = target: T8, B7-1 (UniProt P33681 35-242); experiment: as above
T8 construct: not shown: His tag
T8 sequence (looked up): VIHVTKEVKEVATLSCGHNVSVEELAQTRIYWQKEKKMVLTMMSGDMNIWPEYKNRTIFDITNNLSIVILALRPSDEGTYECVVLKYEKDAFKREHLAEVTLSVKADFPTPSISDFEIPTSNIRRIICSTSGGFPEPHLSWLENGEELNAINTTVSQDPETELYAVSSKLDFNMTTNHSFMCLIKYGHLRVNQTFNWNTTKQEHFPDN

[9] = target: T9, B7-2 (UniProt P42081 26-247, limits assumed); experiment: as above
T9 construct: not shown: His tag
T9 sequence (looked up): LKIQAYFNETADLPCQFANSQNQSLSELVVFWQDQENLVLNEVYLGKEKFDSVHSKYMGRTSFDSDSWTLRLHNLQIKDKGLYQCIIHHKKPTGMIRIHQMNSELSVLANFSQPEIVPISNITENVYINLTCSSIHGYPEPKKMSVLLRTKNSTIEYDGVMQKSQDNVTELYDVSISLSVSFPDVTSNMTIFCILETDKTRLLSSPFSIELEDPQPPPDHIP

[10] = target: T10, PD-L2 (UniProt Q9BQ51 20-219); experiment: as above
T10 construct: not shown: His tag
T10 sequence (looked up): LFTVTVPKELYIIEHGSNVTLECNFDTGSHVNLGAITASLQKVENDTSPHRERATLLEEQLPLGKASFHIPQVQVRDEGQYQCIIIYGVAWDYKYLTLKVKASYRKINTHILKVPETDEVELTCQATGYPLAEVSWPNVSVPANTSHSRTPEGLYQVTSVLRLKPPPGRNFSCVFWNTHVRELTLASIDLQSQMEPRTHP

[11] = target: T11, B7-H7 (UniProt Q9UM44 23-344); experiment: as above
T11 construct: not shown: His tag
T11 sequence (looked up): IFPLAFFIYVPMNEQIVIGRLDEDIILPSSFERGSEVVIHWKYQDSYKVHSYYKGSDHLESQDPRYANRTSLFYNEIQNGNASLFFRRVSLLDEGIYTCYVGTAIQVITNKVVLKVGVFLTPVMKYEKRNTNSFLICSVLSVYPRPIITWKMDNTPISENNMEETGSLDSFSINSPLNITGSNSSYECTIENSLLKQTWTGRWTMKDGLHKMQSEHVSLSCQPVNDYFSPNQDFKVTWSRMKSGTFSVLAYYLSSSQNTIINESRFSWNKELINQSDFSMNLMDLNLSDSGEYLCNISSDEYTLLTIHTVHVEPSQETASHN

[12] = target: T12, B7-H3 Cyno-His (cynomolgus monkey); experiment: SPR, Biacore 8K, antibody captured by anti-human IgG Fc on CM5, B7-H3 Cyno-His as analyte, 1:1 model
T12 construct: also called cynomolgus monkey B7-H3

T3 sequence (Q9NZQ7 19-238 limits assumed): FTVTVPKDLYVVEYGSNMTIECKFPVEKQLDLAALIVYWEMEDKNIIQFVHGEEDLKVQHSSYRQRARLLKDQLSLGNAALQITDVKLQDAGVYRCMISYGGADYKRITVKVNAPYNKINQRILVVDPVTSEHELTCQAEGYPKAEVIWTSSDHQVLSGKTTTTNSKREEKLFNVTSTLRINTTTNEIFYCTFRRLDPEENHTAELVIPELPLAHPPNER

B1: 19-F1-E9-B11 (antibody, human IgG1, kappa, V domains shown)
VH: EVQLQQSGPSLVKPSQTLSLTCSVTGGSITSFYWNWIRKFPGNKLEYMGYISSSGSTYYNPSLKSRISITRDTSKNQSYLQLNSVTAEDTATYYCARGGVHYGFGDYWGQGTSVTVSS
VL: DIVMTQSAPSVPVTPGESVSISCRSSKSLLHSNGNTYLYWFLQRPGQSPQLLIYRMSNLASGVPDRFSGSGSGTAFTLRISRVEAEDVGVYYCMQHLEYPLTFGAGTKLELKR
notes: also called CB11
[1]
  binding result: binds

B2: 16-D10-E1-E1 (antibody, human IgG1, kappa, V domains shown)
VH: EVQLQQSGPELVRPGVSVKISCKGSGYTFTDYAMHWVKQSHAKSLEWIGVINTYSGNTYYSQKFKGKATMTVDKSSSTAYMELARLTSEDSAIYYCARGAGYFPYWYFDVWGAGTTVTVSS
VL: DIQMIQSPSYLAASPGETITINCRASKSISKYLAWYQEKPGKTNKLLIYSGSTLQSGIPSRFSGSGSGTDFTLTISSLEPEDFAMYYCQQHYEYPYTFGGGTKLEIKR
[1]
  binding result: binds

B3: 28-B5-B6-C6 (antibody, human IgG1, kappa, V domains shown)
VH: EVKLQESGPGLVKPSQSLSLTCTVTGYSITSDYAWNWIRQFPGNILEWMGYISYSGSASYNPSLQSRISVTRDTSKNQFFLQLNSVTTEDTATYYCVRSLGRRWYFGFWGAGTTVTVSS
VL: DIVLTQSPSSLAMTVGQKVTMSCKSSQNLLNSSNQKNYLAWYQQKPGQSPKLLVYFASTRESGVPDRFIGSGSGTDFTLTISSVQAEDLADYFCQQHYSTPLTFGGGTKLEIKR
[1]
  binding result: binds

B4: 29-A9-G8-F6 (antibody, human IgG1, kappa, V domains shown)
VH: EVQLQQSGPELVRPGVSVKISCKGSGYTFTDYSMHWVKQSHAKSLEWIGVINTSSGNTYYNLKFKGKATMTVDKSSSTAYMELARLTSEDSAIYYCSKYYGSSFHWYFDVWGAGTTVTVSS
VL: DIVMTQSPVIMSASPGEKVTMTCSASSSVSYMHWYQQKSSTSPKLWIYDTSKLASGVPGRFSGTGSGKSHSLTISSMEAEDVATYYCFQGSGYPLTFGSGTKLEIKR
[1]
  binding result: binds

B5: 9-F1-D9-F10 (antibody, human IgG1, kappa, V domains shown)
VH: EVQLVESGGGLVQPGGSLRVSCATSGFTFSDYYMSWVRQPPGKALEWLGFIRNKINGYTTEYSASVKGRFTISRDNSQSILYLQMNTLRAEDSATYYCTRDSSQRPFAYWGQGTLVTVSA
VL: DIVMTQSPSSLSVSAGEKVTMTCKSSQSLLNSRSQKNFLAWYQQKPGQPPKLLIYGASTRESGVPDRFTGSGSGTDFTLTISNVQAEDLAVYYCQNDLTYPLTFGAGTKLELKR
[1]
  binding result: binds

B6: 9-A2-G3-H11 (antibody, human IgG1, kappa, V domains shown)
VH: EVQLQQSGPELVRPGESVKISCKGSGYTFTDYAIHWVKQSHAKSLEWIGVISTYYDNTYYNQKFKGRATMTVDKSSSTAYMELARLTSEDSAIYYCARGYGSSFNWYFDVWGAGTTVTVSS
VL: DIVMTQSPSSLAVSAGEKVTMSCKSSQSLLNSRTRKNYLAWYQQKPGQSPKLLIYWASTRESGVPDRFTGSGSGTDFTLTITSVQAEDLAVYYCKQSYNLYTFGGGTKLEIKR
[1]
  binding result: binds

B7: cAb1-z3-p7 (antibody, human IgG1, kappa, V domains shown)
VH: EVQLVESGGGLVKPGGSLRLSCAASGFTFSSYGMSWVRQAPGKRLEWVSSISGSGSYTYYPDSLKGRFTISRDNAKNSLYLQMNSLRAEDTAVYYCARQQGYWYFDVWGQGTTVTVSS
VL: DVVMTQTPLSLPVTPGEPASISCRASQSLASSYGKTYLSWYLQKPGQSPQLLIYGISNRFSGVPDRFSGSGSGTDFTLKISRVEAEDVGVYYCLHGTHQPLTFGQGTKLEIKR
notes: Humanized from 48-B4-F4-E4; Human IgG1 / kappa; also called cAbl-z3-p7
[2]
  EC50: 4.66 nM
[3]
  binding result: no binding (tested: starting concentration 10 µg/ml)
[4]
  binding result: no binding (tested: starting concentration 10 µg/ml)
[5]
  binding result: no binding (tested: starting concentration 10 µg/ml)
[6]
  binding result: no binding (tested: starting concentration 10 µg/ml)
[7]
  binding result: no binding (tested: starting concentration 10 µg/ml)
[8]
  binding result: no binding (tested: starting concentration 10 µg/ml)
[9]
  binding result: no binding (tested: starting concentration 10 µg/ml)
[10]
  binding result: no binding (tested: starting concentration 10 µg/ml)
[11]
  binding result: no binding (tested: starting concentration 10 µg/ml)
[12]
  Kd: 3.87 nM
  koff: 5.82e-05 s⁻¹
  kon: 15100 M⁻¹ s⁻¹

B8: 48-B4-F4-E4 (antibody, human IgG1, kappa)
heavy: not shown
light: DVLMTQTPLSLPVSLGDQVSISCRASQSLANSYGKTYLSWYLHKPGQSPQLLIYGISNRFSGVPDRFSGSGSGTDFTLKISTIKPEDLGMYYCLHGTHQPLTFGAGTKLELKRTVAAPSVFIFPPSDEQLKSGTASVVCLLNNFYPREAKVQWKVDNALQSGNSQESVTEQDSKDSTYSLSSTLTLSKADYEKHKVYACEVTHQGLSSPVTKSFNRGEC
notes: also called CE4
[1]
  binding result: binds
